Experimental data taken from PMC10307831, “GATA zinc finger protein p66β promotes breast cancer cell migration by acting as a co-activator of Snail”.

Assays:
[1] = biological target: GST-Snail-ΔZn (zinc finger mutant) (UniProt O95863 1-264, H176D;C180A;C210D;H230D;H252D;C259A); assay: pull-down; EMSA: 10 mM Tris pH 7.5, 50 mM KCl, 1 mM DTT, 5 mM MgCl2, 2.5% glycerol, 0.05% NP-40, 50 ng/ul poly(dI.dC), 600 fmol probe, 12 ug GST protein in 20 ul; gel 6% 0.5x TBE 4 C. Pull-down: NeutrAvidin beads, 8 h 4 C, washed in IP buffer (50 mM Tris pH 7.5, 150 mM NaCl, 1% Triton X-100); details: protein: recombinant; tags: N-terminal GST; label: biotin (probe); blunt
GST-Snail;Flag-p66β = GST-Snail;Flag-p66β (human?;human?, UniProt O95863;Q8WXI9 1-264;1-593, |); assay: pull-down; p66β enhanced Snail binding; EMSA: 10 mM Tris pH 7.5, 50 mM KCl, 1 mM DTT, 5 mM MgCl2, 2.5% glycerol, 0.05% NP-40, 50 ng/ul poly(dI.dC), 600 fmol probe, 12 ug GST protein in 20 ul; gel 6% 0.5x TBE 4 C. Pull-down: NeutrAvidin beads, 8 h 4 C, washed in IP buffer (50 mM Tris pH 7.5, 150 mM NaCl, 1% Triton X-100); details: protein: recombinant;recombinant; tags: N-terminal GST (pGEX-4T-1);Flag; label: biotin (probe); blunt
Chain of GST-Snail;Flag-p66β (O95863 whole entry, chain 1 of 2): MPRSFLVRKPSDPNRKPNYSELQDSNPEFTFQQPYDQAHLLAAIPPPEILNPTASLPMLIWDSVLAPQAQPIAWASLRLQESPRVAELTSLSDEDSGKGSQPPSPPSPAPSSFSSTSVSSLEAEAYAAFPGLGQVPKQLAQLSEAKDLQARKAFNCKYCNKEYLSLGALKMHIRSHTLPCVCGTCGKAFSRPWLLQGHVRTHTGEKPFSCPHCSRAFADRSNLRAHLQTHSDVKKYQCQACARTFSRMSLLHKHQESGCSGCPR
Chain of GST-Snail;Flag-p66β (Q8WXI9 whole entry, chain 2 of 2): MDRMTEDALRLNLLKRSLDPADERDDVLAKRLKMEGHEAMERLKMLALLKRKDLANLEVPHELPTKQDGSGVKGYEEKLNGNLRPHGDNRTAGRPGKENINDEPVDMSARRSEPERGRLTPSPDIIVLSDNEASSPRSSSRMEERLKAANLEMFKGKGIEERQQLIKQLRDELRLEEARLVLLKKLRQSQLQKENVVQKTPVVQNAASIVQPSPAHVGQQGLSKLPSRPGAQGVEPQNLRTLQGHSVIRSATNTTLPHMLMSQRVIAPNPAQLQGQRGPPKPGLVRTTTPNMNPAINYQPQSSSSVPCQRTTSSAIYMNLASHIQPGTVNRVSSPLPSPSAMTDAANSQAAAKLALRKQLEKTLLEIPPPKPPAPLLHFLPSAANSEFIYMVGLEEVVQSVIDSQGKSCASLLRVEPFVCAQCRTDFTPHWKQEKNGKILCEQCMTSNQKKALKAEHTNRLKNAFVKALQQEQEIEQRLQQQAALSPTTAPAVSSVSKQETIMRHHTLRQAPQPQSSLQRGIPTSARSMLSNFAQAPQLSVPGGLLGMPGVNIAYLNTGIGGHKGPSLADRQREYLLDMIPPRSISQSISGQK

Chain of GST-Snail-ΔZn (zinc finger mutant) (O95863 whole entry H176D/C180A/C210D/H230D/H252D/C259A): as the sequence (O95863 whole entry, chain 1 of 2) above, with H176D, C180A, C210D, H230D, H252D, C259A counted along it

B1: COL6A2-G-box-WT (dsDNA)
DNA 1: GGCCCCCTCCTCCCATCCGCG
DNA 2: CGCGGATGGGAGGAGGGGGCC
binding result [1]: no binding
binding result (GST-Snail;Flag-p66β): binds
